The text below walks through data of paper PMC2185550.

Several values for one entry are separate records, joined by “and”; a condition that tells them apart may be missing. Equal entries are not always repeated.

Assay [1] addresses CREB-binding protein (CBP) (human (endogenous in HEp-2)) (UniProt Q92793). Nature of the assay: co-IP.
Assay [2] concerns the target p300 (human (endogenous in HEp-2)) (UniProt Q09472). Nature of the assay: co-IP.
Chain of UniProt Q09472 (Q09472 whole entry): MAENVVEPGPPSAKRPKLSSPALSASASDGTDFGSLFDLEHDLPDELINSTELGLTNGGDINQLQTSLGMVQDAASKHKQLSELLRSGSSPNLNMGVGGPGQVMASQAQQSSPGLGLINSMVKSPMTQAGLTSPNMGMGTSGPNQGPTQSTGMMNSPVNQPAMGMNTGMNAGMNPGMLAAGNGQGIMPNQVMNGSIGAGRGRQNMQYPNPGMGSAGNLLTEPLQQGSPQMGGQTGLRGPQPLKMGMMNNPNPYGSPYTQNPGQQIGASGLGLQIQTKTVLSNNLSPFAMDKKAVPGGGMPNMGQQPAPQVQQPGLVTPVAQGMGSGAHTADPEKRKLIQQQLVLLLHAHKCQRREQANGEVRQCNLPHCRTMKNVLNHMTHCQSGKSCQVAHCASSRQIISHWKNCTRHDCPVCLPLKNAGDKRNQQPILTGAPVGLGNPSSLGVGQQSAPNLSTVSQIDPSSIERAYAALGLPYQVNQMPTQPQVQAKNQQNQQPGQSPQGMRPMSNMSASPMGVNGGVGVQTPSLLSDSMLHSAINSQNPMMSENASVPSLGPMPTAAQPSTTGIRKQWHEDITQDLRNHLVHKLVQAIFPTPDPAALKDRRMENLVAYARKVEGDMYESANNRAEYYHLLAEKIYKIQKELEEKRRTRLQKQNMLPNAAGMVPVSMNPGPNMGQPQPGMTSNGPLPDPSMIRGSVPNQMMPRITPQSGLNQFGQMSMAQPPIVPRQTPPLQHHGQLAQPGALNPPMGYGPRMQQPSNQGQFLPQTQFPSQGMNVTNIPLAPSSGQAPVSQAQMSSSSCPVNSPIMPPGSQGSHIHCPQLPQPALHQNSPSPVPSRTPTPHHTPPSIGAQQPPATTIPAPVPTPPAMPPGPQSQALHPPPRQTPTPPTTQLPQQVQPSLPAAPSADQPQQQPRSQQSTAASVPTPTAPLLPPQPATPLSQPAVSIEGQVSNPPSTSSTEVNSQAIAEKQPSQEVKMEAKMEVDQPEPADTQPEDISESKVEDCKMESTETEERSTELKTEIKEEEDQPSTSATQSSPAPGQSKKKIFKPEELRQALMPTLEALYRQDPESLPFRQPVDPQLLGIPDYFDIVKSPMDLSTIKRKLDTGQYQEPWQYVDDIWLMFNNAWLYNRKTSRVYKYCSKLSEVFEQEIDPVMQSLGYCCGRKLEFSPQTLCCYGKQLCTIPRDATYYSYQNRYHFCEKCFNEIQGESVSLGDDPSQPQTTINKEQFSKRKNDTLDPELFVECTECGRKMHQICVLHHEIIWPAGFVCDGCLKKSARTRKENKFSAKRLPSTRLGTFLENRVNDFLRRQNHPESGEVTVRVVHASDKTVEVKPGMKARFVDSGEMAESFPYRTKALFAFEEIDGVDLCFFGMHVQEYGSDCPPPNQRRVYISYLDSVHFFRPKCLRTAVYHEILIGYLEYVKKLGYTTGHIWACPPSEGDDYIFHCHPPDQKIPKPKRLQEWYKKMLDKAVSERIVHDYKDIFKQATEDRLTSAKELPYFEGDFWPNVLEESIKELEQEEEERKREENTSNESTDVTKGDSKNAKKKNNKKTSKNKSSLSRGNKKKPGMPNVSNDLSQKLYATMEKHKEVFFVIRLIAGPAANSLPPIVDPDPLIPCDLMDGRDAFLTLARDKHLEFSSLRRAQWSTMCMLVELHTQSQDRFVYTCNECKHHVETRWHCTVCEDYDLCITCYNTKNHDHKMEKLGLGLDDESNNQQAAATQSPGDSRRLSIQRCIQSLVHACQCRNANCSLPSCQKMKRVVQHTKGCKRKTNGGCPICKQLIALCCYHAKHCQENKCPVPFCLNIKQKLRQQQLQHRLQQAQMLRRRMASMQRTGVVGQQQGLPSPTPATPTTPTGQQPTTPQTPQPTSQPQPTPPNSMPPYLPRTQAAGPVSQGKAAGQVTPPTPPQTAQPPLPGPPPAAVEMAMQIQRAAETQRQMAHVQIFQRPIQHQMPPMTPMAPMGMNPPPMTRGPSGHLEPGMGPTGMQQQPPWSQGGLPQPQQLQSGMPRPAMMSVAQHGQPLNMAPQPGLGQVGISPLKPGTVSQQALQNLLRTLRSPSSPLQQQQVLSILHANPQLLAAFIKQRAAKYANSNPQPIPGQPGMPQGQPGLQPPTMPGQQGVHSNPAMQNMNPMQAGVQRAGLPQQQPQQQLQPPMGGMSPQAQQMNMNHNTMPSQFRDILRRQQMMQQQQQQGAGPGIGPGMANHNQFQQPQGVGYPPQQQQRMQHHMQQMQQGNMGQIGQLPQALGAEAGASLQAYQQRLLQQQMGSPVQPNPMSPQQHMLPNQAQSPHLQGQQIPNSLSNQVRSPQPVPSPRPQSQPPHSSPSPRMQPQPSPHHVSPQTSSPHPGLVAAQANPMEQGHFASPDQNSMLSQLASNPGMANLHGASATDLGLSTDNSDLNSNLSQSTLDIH

Chain of UniProt Q92793 (Q92793 whole entry): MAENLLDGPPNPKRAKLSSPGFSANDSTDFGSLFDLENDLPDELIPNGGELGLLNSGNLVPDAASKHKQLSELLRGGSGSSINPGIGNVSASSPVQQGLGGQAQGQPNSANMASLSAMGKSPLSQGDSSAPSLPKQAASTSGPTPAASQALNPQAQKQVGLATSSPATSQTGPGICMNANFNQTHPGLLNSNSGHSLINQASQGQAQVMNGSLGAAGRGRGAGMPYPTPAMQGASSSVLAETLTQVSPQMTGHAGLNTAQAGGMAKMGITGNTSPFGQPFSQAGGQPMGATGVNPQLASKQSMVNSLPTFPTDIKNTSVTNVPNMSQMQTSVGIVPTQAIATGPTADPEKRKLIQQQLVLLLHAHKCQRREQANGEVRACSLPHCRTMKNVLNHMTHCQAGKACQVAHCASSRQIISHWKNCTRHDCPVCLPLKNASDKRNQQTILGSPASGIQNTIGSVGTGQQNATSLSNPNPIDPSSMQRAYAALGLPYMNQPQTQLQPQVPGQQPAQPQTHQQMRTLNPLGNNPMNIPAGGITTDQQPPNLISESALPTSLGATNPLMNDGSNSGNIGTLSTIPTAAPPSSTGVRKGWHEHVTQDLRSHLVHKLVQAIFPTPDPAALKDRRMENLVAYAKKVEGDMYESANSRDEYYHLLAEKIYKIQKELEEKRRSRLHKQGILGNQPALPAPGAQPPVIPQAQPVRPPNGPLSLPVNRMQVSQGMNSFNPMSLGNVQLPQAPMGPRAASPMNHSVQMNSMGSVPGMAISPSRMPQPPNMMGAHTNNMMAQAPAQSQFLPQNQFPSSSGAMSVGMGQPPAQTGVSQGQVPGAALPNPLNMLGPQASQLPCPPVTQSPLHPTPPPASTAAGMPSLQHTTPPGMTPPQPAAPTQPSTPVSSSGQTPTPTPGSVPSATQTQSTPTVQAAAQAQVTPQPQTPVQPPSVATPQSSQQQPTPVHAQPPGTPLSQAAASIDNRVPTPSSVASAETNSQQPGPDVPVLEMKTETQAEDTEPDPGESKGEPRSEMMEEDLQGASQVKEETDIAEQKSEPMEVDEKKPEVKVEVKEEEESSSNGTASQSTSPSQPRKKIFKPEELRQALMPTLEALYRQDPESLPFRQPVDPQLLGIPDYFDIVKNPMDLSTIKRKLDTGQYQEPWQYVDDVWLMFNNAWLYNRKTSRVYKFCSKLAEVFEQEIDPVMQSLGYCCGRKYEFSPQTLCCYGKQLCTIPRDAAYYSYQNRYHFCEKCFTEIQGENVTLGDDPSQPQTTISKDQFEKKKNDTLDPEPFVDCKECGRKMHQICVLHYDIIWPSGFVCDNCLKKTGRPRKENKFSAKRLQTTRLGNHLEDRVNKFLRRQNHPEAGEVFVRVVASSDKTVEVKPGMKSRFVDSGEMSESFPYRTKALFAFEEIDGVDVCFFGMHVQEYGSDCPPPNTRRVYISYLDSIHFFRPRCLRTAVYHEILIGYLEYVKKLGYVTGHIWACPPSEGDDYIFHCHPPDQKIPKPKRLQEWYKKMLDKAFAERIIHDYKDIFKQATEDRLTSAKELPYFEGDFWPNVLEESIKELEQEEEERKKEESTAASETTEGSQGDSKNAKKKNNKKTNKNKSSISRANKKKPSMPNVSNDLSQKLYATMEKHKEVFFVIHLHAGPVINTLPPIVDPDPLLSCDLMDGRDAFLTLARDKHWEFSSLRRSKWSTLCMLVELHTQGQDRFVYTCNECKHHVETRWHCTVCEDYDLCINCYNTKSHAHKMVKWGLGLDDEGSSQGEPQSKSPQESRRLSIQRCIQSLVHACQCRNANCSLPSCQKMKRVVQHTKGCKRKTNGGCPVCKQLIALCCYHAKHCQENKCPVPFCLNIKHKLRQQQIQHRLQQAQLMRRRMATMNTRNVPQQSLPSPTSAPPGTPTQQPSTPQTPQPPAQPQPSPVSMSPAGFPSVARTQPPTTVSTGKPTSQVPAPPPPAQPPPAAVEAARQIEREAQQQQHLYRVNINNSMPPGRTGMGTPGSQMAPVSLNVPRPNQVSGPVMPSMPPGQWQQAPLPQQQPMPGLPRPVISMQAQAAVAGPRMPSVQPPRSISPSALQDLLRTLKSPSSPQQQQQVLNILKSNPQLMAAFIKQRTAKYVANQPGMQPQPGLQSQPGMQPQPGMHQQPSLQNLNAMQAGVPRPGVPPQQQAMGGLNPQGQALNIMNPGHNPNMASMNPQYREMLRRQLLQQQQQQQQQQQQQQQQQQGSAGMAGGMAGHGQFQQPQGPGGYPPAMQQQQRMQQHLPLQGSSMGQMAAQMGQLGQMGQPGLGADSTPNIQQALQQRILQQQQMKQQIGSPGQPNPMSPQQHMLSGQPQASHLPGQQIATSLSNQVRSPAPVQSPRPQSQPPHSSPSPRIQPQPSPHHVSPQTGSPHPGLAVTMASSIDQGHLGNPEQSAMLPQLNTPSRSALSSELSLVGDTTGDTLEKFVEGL

Regarding “hypophosphorylated RNA polymerase II (pol IIa), largest subunit (from UniProt P24928 1-1970) (natural protein)”, the percent of pol IIa recovered in the immunoprecipitate was 10% and 20% in assay [1]; 10% and 20% in assay [2].
